According to the RNAGym collection of RNA variant scans (doi:10.7554/elife.80360):

B1: HDV Ribozyme (parent)
chain: GGCCGGCAUGGUCCCAGCCUCCUCGCUGGCGCCGGCUGGGCAACAUUCCGAGGGGACCGUCCCCUCGGUAAUGGCGAAUGGGACCCA

Variants of: B1
Experiment: self-cleavage, relative activity (ratio to wild type); higher = more cleavage; co-transcriptional

Variant | self-cleavage
G29C G59A | 0.0332
C30U C58G | 0.569
C30U C58A | 0.697
C30G C86G | 0.0536
C30G A87C | 0.122
G31U A45C | 0.119
G31U A45G | 0.107
C30U G52U | 0.709
C30U G52C | 0.709
G31U U72C | 0.163
G31U C64A | 0.364
C30A A51G | 0.361
C30G U46G | 0.0361
C30G U46A | 0.0906
G31U C44G | 0.0665
C30G U72G | 0.0923
G31A C85G | 0.367
G31C G81C | 0.194
C30G U47A | 0.0354
C30G U47C | 0.0941
C30U C57A | 0.787

Variant | self-cleavage
C30U C57U | 0.932
C30G C63A | 0.229
G31U C32A | 0.111
C30U G54U | 0.597
G29U C49A | 0.111
G29U C49U | 0.0583
G31C G53C | 0.332
G31C A71U | 0.172
G31C A71G | 0.253
G31C A71C | 0.0475
C30A U47C | 0.314
C30U A51U | 0.791
G31A C63G | 0.365
G31A C63A | 0.379
G31C A42G | 0.0755
G31C A43G | 0.104
G31C U72G | 0.128
G31C C84G | 0.193
G31U G52C | 0.35
G29U C33U | 0.0563
G31U C57U | 0.383

Variant | self-cleavage
G31C G67A | 0.402
C32A A83C | 0.0665
G31C G82C | 0.134
G31A C58G | 0.393
G31A C58A | 0.574
G31C G50C | 0.511
G29U G31A | 0.135
G29U G31U | 0.0804
G31U G53C | 0.563
G31C A78C | 0.0997
C30G A83U | 0.16
C30G A83G | 0
G31U C66G | 0.266
G31C G54A | 0.191
G31C G54C | 0.193
G29U G82A | 0.0282
G29U C84A | 0.117
G31U G38U | 0.0944
C30G G55U | 0.0225
C30G G55A | 0.0852
G29U C86U | 0.0959

Variant | self-cleavage
G31C U37A | 0.115
C30G A43C | 0.0489
C32A A56U | 0.369
C30U G73U | 0.153
C30U A87C | 0.755
C30A G39U | 0.185
C30A A56C | 0.875
G31A G52C | 0.619
G31A G52U | 0.531
G29U G76A | 0.107
C30U G55A | 0.691
G31C C61U | 0.262
C30G G40A | 0.0923
G29U | 0.0885
G31C A83C | 0.185
C30A C32G | 0.101
G29C G68U | 0.0302
G29C U60A | 0.0426
G29U G52U | 0.0875
G31C C63G | 0.34
G29U G39C | 0.0302
